# Data reported in the RNAGym collection of RNA variant scans (doi:10.7554/elife.80360).
# B1: Hairpin Ribozyme (parent)
# chain: GUCCUCUUUCACGUGCGCGUGAAAGAGAGAAGUGAACCAGAGAAACACACGUUGUGGUAUAUUACCUGGUA
# Variants of: B1
# Assay: self-cleavage, relative activity (ratio to wild type); higher = more cleavage; co-transcriptional
row,Variant,self-cleavage
1,GUCCUCUUUCACGUGUGCGUGAAAGAGAGUAGUGAACCAGAGAAACACACGUUGUGGUAUAUUACCUGGUA [C16U A30U],0.2
2,GUCCUCUUUCACGUGCGCGUGAAAGAGAGAAGUGAACUAGAGAAACACACGUUGUGGUAUAUGACCUGGUA [C38U U63G],0.186
3,GUCCUCUUUCACGUGCGCGUGAAAGAGAGAAGUGAACCAGUGAAACACACGUUGUGGUAUAUUGCCUGGUA [A41U A64G],0.372
4,GUCCUCUUUCACGUCCGCGUGAAAAAGAGAAGUGAACCAGAGAAACACACGUUGUGGUAUAUUACCUGGUA [G15C G25A],0.607
5,GUCCUCUUUCACGUGCGCGUGAAAGAGAGAAGGGAACCAGAGAAACACACGUUUUGGUAUAUUACCUGGUA [U33G G54U],0.0691
6,GUCCUCUUUCACGUGCGCGUGAAAGAGAGAAUUGAACCAGAGAAACACACGUUGUGAUAUAUUACCUGGUA [G32U G57A],0.139
7,GUCCUCUUUCACCUGCGCGUGAAAGAGAGAAGUGAACCAGAGAAACACACGUUGUGGUAGAUUACCUGGUA [G13C U60G],0.479
8,GUCCUCUUUCAAGUGCGCGUGAAAGAGAGAAGUGAAGCAGAGAAACACACGUUGUGGUAUAUUACCUGGUA [C12A C37G],0.259
9,GUCCUCUUUCACGUGCGCGUGAAAGAGAGAAGUGAACCAGAGAAACCCACGUUGUGGUAUAUUACCUGGUC [A47C A71C],0.72
10,GUCCUCUUUCACGUGCGCGUGAAGGAGAGAAGUGAACCAGAGAAACACACGUUGUGGUAUAUGACCUGGUA [A24G U63G],0.154
11,GUCCUGUUUCACGUGCGCGUGAAAGAGAGAAGUGAACCCGAGAAACACACGUUGUGGUAUAUUACCUGGUA [C6G A39C],0.299
12,GUCCUCUUUCACGUGCGCGAGAAAGAGAGAAGUGAACCAGAGAAACACACGUUGUGGUAUAUUACCUGGCA [U20A U70C],0.663
13,GUCCUCUGUCACGUGCGCGUGAAAGAGAGAAGUGAACCAGAGAAACACACGCUGUGGUAUAUUACCUGGUA [U8G U52C],0.617
14,GUCCUCUUUCACGUGCGCGUGAAAGAGAGAAGUGAACCAGAGAAACAAACGUUGUGGUAUAUUACCUAGUA [C48A G68A],0.165
15,GUCCUCUUUCACGUCCGCGUGAAAGAGAGAAGAGAACCAGAGAAACACACGUUGUGGUAUAUUACCUGGUA [G15C U33A],0.0629
16,GUCCUCUUUCACGUGCGCGUGAAAGAGAGAAGUGAACCAGAAAAACACACGUUGUGGUAUAAUACCUGGUA [G42A U62A],0.151
17,GUCCUCUUUCAAGUGUGCGUGAAAGAGAGAAGUGAACCAGAGAAACACACGUUGUGGUAUAUUACCUGGUA [C12A C16U],0.977
18,GUCCUCUUUCACGUGCGCGUGAAAGAGAGAAGUGAAUCAGAGAAACACACGUUGUGGUAUAUUGCCUGGUA [C37U A64G],0.456
19,GUCCUCUUUCUCGUGCGCGUGAAAGAGAGAAGUGAACCAGAGAAAGACACGUUGUGGUAUAUUACCUGGUA [A11U C46G],0.0538
20,GUCCUCUUUCACGUGCGCGUGAAAGAGAGAAGUGAACCGGAGAAACACACGUUGAGGUAUAUUACCUGGUA [A39G U55A],0.0918
21,GUCCUCUUUCACGUGCGCGUGAAAGAGACAAGUGAGCCAGAGAAACACACGUUGUGGUAUAUUACCUGGUA [G29C A36G],0.18
22,GUCCUCUUUCACGUGCGCGUGAAAGAGAGAAGUGAACCAGAGAUACACACGUUGUGGUAUGUUACCUGGUA [A44U A61G],0.124
23,GUCCUCUUUCACGUGCGCGUGAAAGAGAGAAGUGAACCAGAGAUACCCACGUUGUGGUAUAUUACCUGGUA [A44U A47C],0.0912
24,GGCCUCUUUCACGUGCGCGUGAAAGAGAGAUGUGAACCAGAGAAACACACGUUGUGGUAUAUUACCUGGUA [U2G A31U],0
25,GUGCUCUCUCACGUGCGCGUGAAAGAGAGAAGUGAACCAGAGAAACACACGUUGUGGUAUAUUACCUGGUA [C3G U8C],0.166
26,GUCCUCUUUCACGUGCGCGUGAAAGAGAGAAGUGAUCCAGAGAAACACACGUUUUGGUAUAUUACCUGGUA [A36U G54U],0.325

row,Variant,self-cleavage
1,GUCCUCUUUCACGUGCGCGUGUAAGAGAGAAGUGAACCAGAGAAACACACGUUGUGGUAUAUUACCUGGCA [A22U U70C],0.876
2,GCCCUCUUUCACGUGCGCGUGAAAGAGAGAAGUGAACCAGAGAAACACACUUUGUGGUAUAUUACCUGGUA [U2C G51U],0.172
3,GUCCUCUUUCACGUGCGCGUGAAAGAGAGAAGUGAACCAGAGGAACACACGUUGUGGUAUAUUACCUAGUA [A43G G68A],0.172
4,GUCCUCUUUCACGUGCGCGUUAAAGAGAGAAGUGAACCAGAGAAACACACGUUGUGGCAUAUUACCUGGUA [G21U U58C],0.84
5,GUCCUCUUUCACGUGCGCGUGAAAGGGAGAAGUGAACCAGAGAAACACACGUUGUGGUACAUUACCUGGUA [A26G U60C],0.963
6,GUCCUCUUUCACGUGCGCGUGAAAGAGAGCAGUGAACCAGAGAAACACACGUUGUGGUAGAUUACCUGGUA [A30C U60G],0.181
7,GUCCUCUUUCACGUGCGCGUGAACGAGAGAAGUGAACCAGAGCAACACACGUUGUGGUAUAUUACCUGGUA [A24C A43C],0.0956
8,GUCCUCUUUCACGUGCGCGUGAAAAAGAGAAGUGAACCAGAGAAGCACACGUUGUGGUAUAUUACCUGGUA [G25A A45G],0.24
9,GUCCUCUUUCACGUGCGCGUGAAAGAGAGAAGUGAACGAGAGAAACACACGUUGUGGUAUAUUACCGGGUA [C38G U67G],0.124
10,GUCCUCUUUCACGUCCGCGUGAAUGAGAGAAGUGAACCAGAGAAACACACGUUGUGGUAUAUUACCUGGUA [G15C A24U],0.884
11,GUCCUCUUUCACGUGCGCGUGGAAGAGAGAAGUGAACCAGAGAAACACACGUUGUGGUAUAUUAGCUGGUA [A22G C65G],0.249
12,GUCCUCUUUCACGUGCGCGUGAAAGAGAGACGUGACCCAGAGAAACACACGUUGUGGUAUAUUACCUGGUA [A31C A36C],0.123
13,GUGCUCGUUCACGUGCGCGUGAAAGAGAGAAGUGAACCAGAGAAACACACGUUGUGGUAUAUUACCUGGUA [C3G U7G],0.281
14,GUCGUCUUUCACGUGCGCGUGAAAGAGAGAAGUGAACCUGAGAAACACACGUUGUGGUAUAUUACCUGGUA [C4G A39U],0.123
15,GACCUCUUUCACGUGCGCGUGAAAGACAGAAGUGAACCAGAGAAACACACGUUGUGGUAUAUUACCUGGUA [U2A G27C],0.108
16,GUCCUCUUUCACGUGCGCGUGAAAGAGAGAAGUGAACCAGAGAAUCACACGUUGAGGUAUAUUACCUGGUA [A45U U55A],0.197
17,GUCCUCUUUCGCGUGCGCGUGAAAGAGAGAAGUGAACCAGAGAAACACACGUCGUGGUAUAUUACCUGGUA [A11G U53C],1.02
18,GUCCUCUUUCACGUGCGCGUGAAAGAGAGAAGUGAGACAGAGAAACACACGUUGUGGUAUAUUACCUGGUA [A36G C37A],0.297
19,GUCCUCUUUCACGUGCGCGUGAAACAGAGAAGUGAACCAGAUAAACACACGUUGUGGUAUAUUACCUGGUA [G25C G42U],0.182
20,GUCCUCUUUCACGUGCGCGUGAAGGAGAGAAGUGAACCAGAGAAACACACGUUGUGGUAGAUUACCUGGUA [A24G U60G],0.661
21,GUCCUCUUUCACGUGCGCGUGAAAGAGAGAAAUGAACCAGAGAAAGACACGUUGUGGUAUAUUACCUGGUA [G32A C46G],0.103
22,GUCCUCCUUCACGUGCGGGUGAAAGAGAGAAGUGAACCAGAGAAACACACGUUGUGGUAUAUUACCUGGUA [U7C C18G],0.732
23,GUCCUCUUUCACGUGCGCGUGAAAGAGAGAAGUGAACCAGAGAAACACACGAUGUGGUAUAUUACCUGGUG [U52A A71G],1.12
24,GUCCUCUUUCACGUGCGCGUGACACAGAGAAGUGAACCAGAGAAACACACGUUGUGGUAUAUUACCUGGUA [A23C G25C],0.147
25,GUCCUCUUUCACGUGCGCGUGAAAGAGAGAAGUGAACCAGAGGAACACACGUUGUCGUAUAUUACCUGGUA [A43G G56C],0.0421
26,GUCCUCUUUCAUGUGCGCGUGAAAGAGAGAAGUGAACCAGAGAAACACACGUUGUGGUAUACUACCUGGUA [C12U U62C],0.27

row,Variant,self-cleavage
1,GGCCUCUUUCACGUGCGCGUGAAAGAGAGGAGUGAACCAGAGAAACACACGUUGUGGUAUAUUACCUGGUA [U2G A30G],0.0671
2,GUCCUCUUUCACGUGCGCGUGAAAGAGAGAAGUGAACCAGCGAAACACACGUUGUGGUAUAUUACCUGGUA [A41C],1.21
3,GUCCUCUUUCACGUGCGCGUGAAAGAGAGAAGUGAACCAGAGAAACACACGUUGUGGUGUAUCACCUGGUA [A59G U63C],0.134
4,GUGCUCUUUCACGUGCGCGUGCAAGAGAGAAGUGAACCAGAGAAACACACGUUGUGGUAUAUUACCUGGUA [C3G A22C],0.227
5,GUCCUCUUUCACGUGCGCGUGAAAGAGAGAACUGAACCAGAGAAACACACGUUGUGGUAUAUUGCCUGGUA [G32C A64G],0.0936
6,GUCCUCUUUCACGUGCGCGUGAAAGAGUGAAGUGAACCAGAGAAACACACGUUGUGGUAAAUUACCUGGUA [A28U U60A],0.493
7,GUCCUCUUUCACGUGCUCGUGAAAGAGAGAAGUGAACCAGAGAAACAAACGUUGUGGUAUAUUACCUGGUA [G17U C48A],0.106
8,GUCCUCUUUCACGUGCGCGCGAAAGAGAGAAGUGAACCAGAGAAACACAUGUUGUGGUAUAUUACCUGGUA [U20C C50U],0.476
9,GUCCUCUUUCACGUACGCGUGAAAGAGAGAAGUGAACCAGAAAAACACACGUUGUGGUAUAUUACCUGGUA [G15A G42A],0.15
10,UUCCUCUUUCACGUGCGCGUGAAAGAGAGAAGUGAACCAGAAAAACACACGUUGUGGUAUAUUACCUGGUA [G1U G42A],0.121
11,GUCCUCUUUCACGUGCGCGUGAAAGCGAGAAGUGAACCAUAGAAACACACGUUGUGGUAUAUUACCUGGUA [A26C G40U],0.114
12,GUCCUCUUUCACAUGCGCGUGAAAGAGAGAAGUGAAACAGAGAAACACACGUUGUGGUAUAUUACCUGGUA [G13A C37A],0.373
13,GUCCUCUUUCACGUGCGCGUGAAAGAGAGAAGGGAACCAGAGAAACACACGCUGUGGUAUAUUACCUGGUA [U33G U52C],0.145
14,GUCCUCUUUCACGUGCGCGUGAAAGAGAGAAGUGAACCAGAGAAACAGACGUUGUGGUAAAUUACCUGGUA [C48G U60A],0.121
15,GUCCUCUUUCACGUGCGCGUGAAAGAGAGAAGUGAACCAGAGAAGCACCCGUUGUGGUAUAUUACCUGGUA [A45G A49C],0.103
16,GUCCUCUUUCACGUGCGCGUGAAAGAGAGAAGUGAACCAGAGAACCACACGUUGUGGUAUAUUAACUGGUA [A45C C65A],0.2
17,GUCCUCUUUCACGUGCGCGUGAAAGAGAGAAGUGAACCAAAGAACCACACGUUGUGGUAUAUUACCUGGUA [G40A A45C],0.0818
18,GUCCUCUUUCACGUGCGCGUGCAAGAGAGAAGUGAACCAGAGAAACACACGUUGUGGUAUAUUAGCUGGUA [A22C C65G],0.116
19,GUCCUCUUUCACGUGCGCGUGAAAGAGAGAAGUGAACCAGAGAAACACACUUUGGGGUAUAUUACCUGGUA [G51U U55G],0.222
20,GUCCUCUUUCACGUGCGUAUGAAAGAGAGAAGUGAACCAGAGAAACACACGUUGUGGUAUAUUACCUGGUA [C18U G19A],1.08
21,GUCCUCUUUCCCGUGCGCGUGAAAGAGAGAAGUGAACCAGAGAAACACACGUUGUGGUAUCUUACCUGGUA [A11C A61C],0.24
22,GUCCUCUUUCACGUGCGCGUGAAAGAGAGAAGUGAACCAGAGAUAUACACGUUGUGGUAUAUUACCUGGUA [A44U C46U],0.193
23,GUCCUCUUUCACGUGCGCGUGAAAGGGAGAAGUGAACCAGAGAAACACACGUUGUGGUAUACUACCUGGUA [A26G U62C],0.277
24,GUCCUCUUUCACGUGCGCGUGAAAGAGAGAAGUGAGCCAGAGAAACACAAGUUGUGGUAUAUUACCUGGUA [A36G C50A],0.34
